The target of data set [1] is T1, TGA2.1 (Oryza sativa (rice), UniProt Q7X993 1-334).
T1 sequence: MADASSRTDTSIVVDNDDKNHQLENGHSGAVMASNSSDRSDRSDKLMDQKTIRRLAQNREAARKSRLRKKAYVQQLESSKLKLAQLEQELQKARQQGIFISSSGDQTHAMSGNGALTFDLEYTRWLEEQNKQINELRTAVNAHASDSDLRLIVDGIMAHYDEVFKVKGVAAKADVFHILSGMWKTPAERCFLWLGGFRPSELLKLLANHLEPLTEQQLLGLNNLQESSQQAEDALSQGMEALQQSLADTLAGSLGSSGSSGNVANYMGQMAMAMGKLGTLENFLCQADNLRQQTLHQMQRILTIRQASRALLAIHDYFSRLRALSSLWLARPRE
In words: competition; EMSA competitor 5X, 20X, 100X against biotin-wt probe; EMSA with biotin probe, chemiluminescent detection; buffer, salt, pH and temperature not stated. The following applies: protein: recombinant; chain copies: 2.

Data set [2] addresses T1, TGA2.1. In words: EMSA; competed by unlabeled wt oligonucleotide (5X, 20X, 100X tested); EMSA with biotin probe, chemiluminescent detection; buffer, salt, pH and temperature not stated. The following applies: protein: recombinant; chain copies: 2; label: 5'-biotin on top strand (probe). For orientation: Mobility shift assays separate free from complexed probe on a gel.

B1: CRK10 promoter TGA site mt competitor (dsDNA)
DNA 1: CTCTTTGTGGTGTTGTTCTTC
DNA 2: GAAGAACAACACCACAAAGAG
In the case of B1, in the data set with TGA2.1 [1], the binding result is recorded as “no binding”.

B2: CRK10 promoter TGA site wt probe (dsDNA)
DNA 1: CTCTTTGTGACGTTGTTCTTC
DNA 2: GAAGAACAACGTCACAAAGAG
Take B2: the binding result in the data set with TGA2.1 [2] was “binds”.

These data come from PMC4866720, “A Genetic Screen Identifies a Requirement for Cysteine-Rich–Receptor-Like Kinases in Rice NH1 (OsNPR1)-Mediated Immunity”.
